Assay results: paper PMC5758567 (2018)

What was measured:
[1] = target: T1, PDE6 (lower-affinity site) (Bos taurus, UniProt P11541); experiment: activity titration
T1 chain 1: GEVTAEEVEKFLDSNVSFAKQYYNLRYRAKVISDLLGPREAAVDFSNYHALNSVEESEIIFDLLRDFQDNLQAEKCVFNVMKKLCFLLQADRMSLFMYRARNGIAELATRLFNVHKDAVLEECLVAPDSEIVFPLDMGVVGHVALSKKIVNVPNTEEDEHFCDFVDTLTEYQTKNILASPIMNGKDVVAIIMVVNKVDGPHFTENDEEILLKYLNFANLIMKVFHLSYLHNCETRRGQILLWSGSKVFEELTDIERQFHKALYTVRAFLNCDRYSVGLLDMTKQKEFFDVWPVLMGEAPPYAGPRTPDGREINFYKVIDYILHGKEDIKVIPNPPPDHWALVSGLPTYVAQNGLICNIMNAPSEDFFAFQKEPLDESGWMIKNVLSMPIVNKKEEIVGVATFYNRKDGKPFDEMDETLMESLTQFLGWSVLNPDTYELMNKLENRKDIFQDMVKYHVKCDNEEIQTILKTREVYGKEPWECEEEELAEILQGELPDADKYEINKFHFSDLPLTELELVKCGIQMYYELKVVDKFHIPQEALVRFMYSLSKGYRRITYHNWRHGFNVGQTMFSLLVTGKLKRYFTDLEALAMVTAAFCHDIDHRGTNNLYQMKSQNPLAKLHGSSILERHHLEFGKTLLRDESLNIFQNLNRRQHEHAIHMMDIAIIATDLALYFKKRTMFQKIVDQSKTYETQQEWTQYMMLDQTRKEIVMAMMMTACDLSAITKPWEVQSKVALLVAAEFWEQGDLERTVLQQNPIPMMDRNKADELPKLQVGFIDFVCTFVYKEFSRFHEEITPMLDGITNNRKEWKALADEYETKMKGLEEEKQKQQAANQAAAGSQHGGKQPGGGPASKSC
T1 chain 2: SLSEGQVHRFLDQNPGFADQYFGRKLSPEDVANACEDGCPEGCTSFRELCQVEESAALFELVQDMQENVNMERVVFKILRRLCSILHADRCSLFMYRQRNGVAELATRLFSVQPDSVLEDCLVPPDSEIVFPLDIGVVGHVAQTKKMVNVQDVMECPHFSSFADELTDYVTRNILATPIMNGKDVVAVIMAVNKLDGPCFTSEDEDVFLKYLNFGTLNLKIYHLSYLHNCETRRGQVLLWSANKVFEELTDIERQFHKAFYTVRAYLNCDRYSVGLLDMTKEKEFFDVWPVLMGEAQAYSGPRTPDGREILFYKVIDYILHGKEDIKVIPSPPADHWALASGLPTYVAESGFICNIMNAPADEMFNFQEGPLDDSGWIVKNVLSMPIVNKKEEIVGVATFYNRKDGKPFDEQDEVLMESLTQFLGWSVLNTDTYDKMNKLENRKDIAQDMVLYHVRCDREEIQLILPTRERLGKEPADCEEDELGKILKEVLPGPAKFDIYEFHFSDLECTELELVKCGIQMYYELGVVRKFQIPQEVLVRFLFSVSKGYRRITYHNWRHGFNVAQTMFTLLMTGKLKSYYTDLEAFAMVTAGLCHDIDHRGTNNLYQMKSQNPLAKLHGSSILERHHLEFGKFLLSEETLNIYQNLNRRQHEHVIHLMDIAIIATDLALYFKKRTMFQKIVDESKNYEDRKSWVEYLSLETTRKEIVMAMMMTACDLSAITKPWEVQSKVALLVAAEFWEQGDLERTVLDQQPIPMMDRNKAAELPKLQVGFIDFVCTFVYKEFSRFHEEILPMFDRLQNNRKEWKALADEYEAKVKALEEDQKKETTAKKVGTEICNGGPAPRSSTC

[2] = target: T2, PDE6 (higher-affinity site) (Bos taurus, UniProt P11541); experiment: activity titration
T2 chain 1: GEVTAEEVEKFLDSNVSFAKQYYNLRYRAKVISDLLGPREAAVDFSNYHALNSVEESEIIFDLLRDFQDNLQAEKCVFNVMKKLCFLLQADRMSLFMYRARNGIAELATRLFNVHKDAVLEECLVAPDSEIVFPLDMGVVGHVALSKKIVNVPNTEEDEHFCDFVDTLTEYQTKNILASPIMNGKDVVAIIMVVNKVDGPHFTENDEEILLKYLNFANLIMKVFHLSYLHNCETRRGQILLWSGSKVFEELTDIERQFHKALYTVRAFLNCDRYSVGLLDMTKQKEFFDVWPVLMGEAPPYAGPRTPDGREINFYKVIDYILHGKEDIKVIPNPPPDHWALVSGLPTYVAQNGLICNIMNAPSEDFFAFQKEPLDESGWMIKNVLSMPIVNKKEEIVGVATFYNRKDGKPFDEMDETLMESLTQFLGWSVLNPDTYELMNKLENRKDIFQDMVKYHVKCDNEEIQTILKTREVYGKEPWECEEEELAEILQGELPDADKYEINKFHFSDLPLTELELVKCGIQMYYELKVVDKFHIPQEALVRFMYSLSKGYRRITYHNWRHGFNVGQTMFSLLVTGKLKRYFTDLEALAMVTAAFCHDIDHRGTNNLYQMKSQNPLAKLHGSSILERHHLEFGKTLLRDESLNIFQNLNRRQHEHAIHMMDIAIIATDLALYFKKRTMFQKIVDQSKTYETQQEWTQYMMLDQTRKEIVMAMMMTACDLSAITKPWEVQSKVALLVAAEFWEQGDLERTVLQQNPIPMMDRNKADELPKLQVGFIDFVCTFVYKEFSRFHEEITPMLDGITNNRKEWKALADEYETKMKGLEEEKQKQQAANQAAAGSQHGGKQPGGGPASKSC
T2 chain 2: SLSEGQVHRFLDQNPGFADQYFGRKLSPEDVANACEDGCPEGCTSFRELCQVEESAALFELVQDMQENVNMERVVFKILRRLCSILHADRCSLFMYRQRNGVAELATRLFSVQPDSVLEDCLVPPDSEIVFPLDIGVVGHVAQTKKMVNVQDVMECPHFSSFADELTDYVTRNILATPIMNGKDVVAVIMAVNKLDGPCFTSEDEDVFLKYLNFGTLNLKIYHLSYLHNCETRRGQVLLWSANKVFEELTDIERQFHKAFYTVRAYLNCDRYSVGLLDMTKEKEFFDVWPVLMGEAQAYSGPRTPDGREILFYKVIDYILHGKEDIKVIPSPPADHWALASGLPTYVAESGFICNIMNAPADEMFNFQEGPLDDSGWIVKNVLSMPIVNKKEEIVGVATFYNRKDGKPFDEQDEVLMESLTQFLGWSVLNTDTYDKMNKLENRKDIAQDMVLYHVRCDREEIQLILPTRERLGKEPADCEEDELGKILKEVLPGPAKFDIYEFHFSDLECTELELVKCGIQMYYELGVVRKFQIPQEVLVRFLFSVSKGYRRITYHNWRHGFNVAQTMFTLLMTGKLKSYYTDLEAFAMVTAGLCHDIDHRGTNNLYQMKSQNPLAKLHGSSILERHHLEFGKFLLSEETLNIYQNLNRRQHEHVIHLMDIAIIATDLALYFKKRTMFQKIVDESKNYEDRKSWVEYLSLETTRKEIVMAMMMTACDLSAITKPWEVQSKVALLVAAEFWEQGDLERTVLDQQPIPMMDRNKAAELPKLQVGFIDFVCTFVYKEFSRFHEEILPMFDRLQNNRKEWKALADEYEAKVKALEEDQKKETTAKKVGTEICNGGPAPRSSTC

Kd [1]: 700 nM
Kd [2]: 40 nM
B1: PrBP/δ (protein)
chain: MSAKDERAREILRGFKLNWMNLRDAETGKILWQGTEDLSVPGVEHEARVPKKILKCKAVSRELNFSSTEQMEKFRLEQKVYFKGQCLEEWFFEFGFVIPNSTNTWQSLIEAAPESQMMPASVLTGNVIIETKFFDDDLLVSTSRVRLFYV
